This is an account of results in patent publication US20240409645A1 (DUALYX, published 2024).

T1: mouse common cytokine receptor γ-chain (IL-2Rγ) (mouse, UniProt P34902 23-263, limits assumed)
T1 construct: Recombinant mouse IL-2Rγ protein; also called mo IL-2R; mouse IL-2R gamma
T1 sequence (looked up): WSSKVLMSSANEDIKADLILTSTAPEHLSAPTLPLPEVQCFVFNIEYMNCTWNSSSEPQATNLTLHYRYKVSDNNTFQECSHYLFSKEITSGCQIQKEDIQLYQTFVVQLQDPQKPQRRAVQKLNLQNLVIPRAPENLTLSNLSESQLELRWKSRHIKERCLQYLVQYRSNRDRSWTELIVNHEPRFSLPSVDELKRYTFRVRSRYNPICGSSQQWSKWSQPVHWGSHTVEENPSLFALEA

T2: human common cytokine receptor γ-chain (IL-2Rγ) (human, UniProt P31785 23-262, limits assumed)
T2 construct: Recombinant human IL-2Rγ protein, coated (ELISA) or amine-coupled to a CM5 chip (SPR); also called hu IL-2R; CD132
T2 sequence: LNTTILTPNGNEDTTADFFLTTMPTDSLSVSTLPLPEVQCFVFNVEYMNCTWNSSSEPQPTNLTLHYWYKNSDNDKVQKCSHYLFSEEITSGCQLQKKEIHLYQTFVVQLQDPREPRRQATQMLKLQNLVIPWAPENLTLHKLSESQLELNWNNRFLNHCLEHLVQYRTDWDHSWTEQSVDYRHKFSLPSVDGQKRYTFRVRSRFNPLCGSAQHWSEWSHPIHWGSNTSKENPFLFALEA

T3: human IL-2Rβ (human, UniProt P14784 27-240, limits assumed)
T3 construct: Recombinant human IL-2Rβ protein, coated on ELISA plates or immobilized on a CM5 chip; also called hu IL-2R; interleukin 2 receptor β-chain
T3 sequence: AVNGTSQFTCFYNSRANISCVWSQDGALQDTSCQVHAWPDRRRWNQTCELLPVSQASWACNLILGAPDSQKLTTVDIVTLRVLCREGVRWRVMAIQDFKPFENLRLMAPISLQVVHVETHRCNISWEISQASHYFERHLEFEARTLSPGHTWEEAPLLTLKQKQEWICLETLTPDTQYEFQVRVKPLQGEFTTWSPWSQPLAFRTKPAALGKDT

B1: FJ1427_P035MP07D03 (VHH)
VHH: QVQLVESGGGLVQAGGSLRLSCAASGRTLSRYAMGWFRQAPGKEREFVTANSWGGDTYYADSVQGRFTFSRDNAKNTVYLQMNSLQPEDTAVYYCAAAPTSFATTAYSSSNSYAYWGQGTQVTVSS
notes: tested as periplasmic extract; also called Clone nr
B2: FJ1427_P035MP07H08 (VHH)
VHH: B1 VHH
notes: tested as periplasmic extract; also called Clone nr; 640
B3: FJ1427_P035MP07B05 (VHH)
VHH: B1 VHH
notes: tested as periplasmic extract; also called Clone nr; 610
B4: FJ1427_P035MP07C08 (VHH)
VHH: B1 VHH
notes: tested as periplasmic extract; also called Clone nr; 635
B5: FJ1427_P035MP07A07 (VHH)
VHH: B1 VHH
notes: as for B1
B6: FJ1427_P035MP07E06 (VHH)
VHH: B1 VHH
notes: as for B1
B7: FJ1427_P035MP07E03 (VHH)
VHH: B1 VHH
notes: tested as periplasmic extract; also called Clone nr; 597
B8: FJ1427_P035MP07C07 (VHH)
VHH: B1 VHH
notes: tested as periplasmic extract; also called Clone nr; 627
B9: FJ1427_P035MP07A08 (VHH)
VHH: B1 VHH
notes: tested as periplasmic extract; also called Clone nr; 633
B10: FJ1427_P035MP07G03 (VHH)
VHH: B1 VHH
notes: as for B1
B11: FJ1427_P035MP07G07 (VHH)
VHH: B1 VHH
notes: as for B1
B12: FJ1427_P035MP07E10 (VHH)
VHH: B1 VHH
notes: tested as periplasmic extract; also called Clone nr; 653
B13: FJ1427_P035MP07B07 (VHH)
VHH: QVQLVESGGGLVQAGGSLRLSCAASGRSLSRYAMGWFRQAPGKEREFVAAISWGGDSFYTDSVEGRFTFSRDNAKNAVYLEMNDLQPEDTAVYYCAAAPTSFPTTAYSSSNSYSYWGRGTQVTVSS
notes: tested as periplasmic extract; also called Clone nr; 626
B14: FJ1427_P035MP07C10 (VHH)
VHH: B13 VHH with Y32D, A50V, I51M, S57T, P103A
notes: tested as periplasmic extract; also called Clone nr; 651
B15: FJ1427_P035MP06H02 (VHH)
VHH: QVQLVESGGGLVQAGGSLRLSCAVSGDVFVRYTMAWFRQAPGKEREFVASVTDSGRTTEYVDSVKGRFTVSRDNAKNTAYLQMNNLKPEDTAVYYCAANTDYFQIRSLDLNTWGQGTQVTVSS
notes: Soluble VHH in periplasmic extract (P.E.); also called Clone nr
B16: FJ1427_P035MP06A03 (VHH)
VHH: B15 VHH with Q1E, V24A, E59D, A79V, D109E, L110F
notes: as for B15
B17: FJ1427 P035MP06F04 (VHH)
VHH: B15 VHH with A79V, N85S, D109R, L110A
notes: Soluble VHH in periplasmic extract (P.E.); also called Clone nr; 510
B18: FJ1427_P035MP06A05 (VHH)
VHH: B15 VHH with E59D, D62H, A79V, R106K, L110A
notes: as for B15
B19: FJ1427 P035MP06E03 (VHH)
VHH: B15 VHH with Q1E, V24A, E59D, A79V, R106K, L110R, S123P
notes: as for B15
B20: FJ1427 P035MP06G09 (VHH)
VHH: B15 VHH with A14P, V24A, E59D, A79V, R106K, L110R
notes: Soluble VHH in periplasmic extract (P.E.); also called Clone nr; 551
B21: FJ1427 P035MP06D08 (VHH)
VHH: B15 VHH with S123L
notes: Soluble VHH in periplasmic extract (P.E.); also called Clone nr; 540
B22: FJ1427 P035MP06C09 (VHH)
VHH: B15 VHH with Q1E, V24A, A40T, A79V, D109R, L110A
notes: as for B15
B23: FJ1427 P035MP06E12 (VHH)
VHH: B15 VHH with V24A, E59D, A79V, N85A, R106K
notes: as for B15
B24: FJ1427 P035MP06B06 (VHH)
VHH: B15 VHH with Q1E, S17P
notes: as for B15

Substitutions are numbered along the chain they refer to.

For one experiment, the target named is T1, mouse common cytokine receptor γ-chain …. The experiment can be described thus: P.E. binding ELISA. Summed up:
(§1)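 Direct-coat ELISA: receptor protein o/n 4° C → 4% Marvel/PBS block 1 h → P.E. 1:5 in 1% Marvel/PBS, 1 h → OD450 vs neg. controls.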
(In general: ELISA stands for enzyme-linked immunosorbent assay.)
For the molecule B1, the “PE binding ELISA OD” value turned out to be 0.046 OD450 nm.
Take B2: the “PE binding ELISA OD” value is 0.047 OD450 nm.
The same measure, in the same setting: for B3 the value was 0.045 OD450 nm; for B4, 0.049 OD450 nm.
The same measure, in the same setting: the same measure for B5: 0.047 OD450 nm; for B6: 0.046 OD450 nm; for B7: 0.048 OD450 nm.
Turning to B8, the “PE binding ELISA OD” value came to 0.047 OD450 nm.
For B9, the “PE binding ELISA OD” value is 0.049 OD450 nm.
As for B10, the “PE binding ELISA OD” value was found to be 0.048 OD450 nm.
On the same count and under the same terms, the same measure for B11: 0.045 OD450 nm; for B12: 0.047 OD450 nm.
Turning to B13, the “PE binding ELISA OD” value was found to be 0.045 OD450 nm.
Same read-out and setting: for B14 the value was 0.074 OD450 nm.

A further experiment deals with T2, human common cytokine receptor γ-chain …. The experiment can be described thus: P.E. binding ELISA. In short, it runs like this:
as §1
With B1, the “PE binding ELISA OD” value was 1.25 OD450 nm.
In the case of B2, the “PE binding ELISA OD” value turned out to be 0.51 OD450 nm.
Consider B3, for which the “PE binding ELISA OD” value is 0.439 OD450 nm.
Same read-out and setting: the same measure for B4: 0.528 OD450 nm; for B5: 1.04 OD450 nm; for B6: 0.464 OD450 nm.
On the same count and under the same terms, for B7 the value was 0.445 OD450 nm.
Regarding B8, the “PE binding ELISA OD” value was 0.469 OD450 nm.
Consider B9, for which the “PE binding ELISA OD” value is 0.889 OD450 nm.
Turning to B10, the “PE binding ELISA OD” value turned out to be 0.495 OD450 nm.
As to B11, the “PE binding ELISA OD” value was determined as 0.479 OD450 nm.
Take B12: the “PE binding ELISA OD” value was determined as 0.434 OD450 nm.
With B13, the “PE binding ELISA OD” value was determined as 0.29 OD450 nm.
In the case of B14, the “PE binding ELISA OD” value came out at 0.424 OD450 nm.

The target in a further experiment is T3, human IL-2Rβ. The experiment can be described thus: SPR off-rate ranking of P.E., human IL-2Rβ immobilized. Here is the method:
SPR was performed to determine dissociation rates using Biacore 3000 instrument (GE Healthcare). Briefly, human and mouse IL-2R proteins were immobilized on carboxylmethyl dextran sensor chip (CM5) at approximately 2500 RUs using amine coupling in acetate buffer (GE Healthcare). The VHH-containing P.E. were loaded with a flow rate of 30 uL/min and the off-rates were measured over a 120s period.
Regarding B15, the koff – broadly, the rate constant with which the complex falls apart – was 0.000171 s⁻¹.
On the same count and under the same terms, for B16 the value was 0.000882 s⁻¹; for B17, 0.000487 s⁻¹.
Still for that read-out and setting: the same measure for B18: 0.00118 s⁻¹; for B19: 0.000745 s⁻¹; for B20: 0.000726 s⁻¹.
Consider B21, for which the koff was 0.000209 s⁻¹.
Same read-out and setting: for B22 the value was 0.00101 s⁻¹.
Molecule B23 yielded a dissociation rate constant (koff) of 0.000496 s⁻¹.
The same measure, in the same setting: for B24 the value was 0.000324 s⁻¹.

Another experiment concerns the target T1, mouse common cytokine receptor γ-chain …. The experiment can be described thus: P.E. off-rate SPR. Summed up: (§2)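 CM5 chip, amine coupling (acetate buffer), ~2500 RU receptor. VHH P.E. flowed at 30 uL/min; off-rate read over 120 s.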
With B1, the koff stood at 0.107 s⁻¹.
Turning to B2, the dissociation rate constant (koff) was found to be 0.1 s⁻¹.
With B3, the koff came to 0.11 s⁻¹.
Still for that read-out and setting: the same measure for B4: 0.108 s⁻¹.
On the same count and under the same terms, for B5 the value was 0.0971 s⁻¹; for B6, 0.102 s⁻¹.
Same read-out and setting: for B7 the value was 0.0966 s⁻¹.
Turning to B8, the koff was determined as 0.105 s⁻¹.
Regarding B9, the koff came out at 0.106 s⁻¹.
On to B10, for which the koff was 0.099 s⁻¹.
For B11, the koff came out at 0.106 s⁻¹.
The same measure, in the same setting: for B12 the value was 0.107 s⁻¹.
Take B13: the koff was 0.00347 s⁻¹.
As for B14, the koff is 0.0132 s⁻¹.

For another experiment, the target named is T2, human common cytokine receptor γ-chain …. The experiment can be described thus: P.E. off-rate SPR. Summed up: as §2
B1 had a koff of 0.00339 s⁻¹.
Still for that read-out and setting: the same measure for B2: 0.00303 s⁻¹.
The same measure, in the same setting: for B3 the value was 0.00282 s⁻¹; for B4, 0.00259 s⁻¹.
Still for that read-out and setting: for B5 the value was 0.00173 s⁻¹; for B6, 0.00272 s⁻¹.
Regarding B7, the koff turned out to be 0.00311 s⁻¹. The koff values of the last two molecules are within 1.5-fold of each other.
Still for that read-out and setting: the same measure for B8: 0.0025 s⁻¹; for B9: 0.00255 s⁻¹; for B10: 0.00309 s⁻¹.
B11 returned a koff of 0.00273 s⁻¹.
The molecule B12 displayed a koff of 0.0033 s⁻¹.
With B13, the koff was 0.00259 s⁻¹.
The same measure, in the same setting: for B14 the value was 0.00176 s⁻¹.

The target in a further experiment is T3, human IL-2Rβ. The experiment can be described thus: P.E. binding ELISA, human IL-2Rβ coated. Here is the method:
In a binding ELISA, human or mouse IL-2Rα, IL-2Rβ and IL-2Rγ proteins were coated directly on maxisorp microtiter plates overnight at 4° C. Free binding sites were blocked using 4% Marvel in PBS for 1 hour. Next, 1:5 dilution of P.E. in 1% Marvel/PBS were added to wells and incubated for 1 hour. […] Binding specificity was determined based on O.D. at 450 nm values compared to negative controls.
For the molecule B15, the “OD450 nm (P.E. binding ELISA)” value is 0.371 OD450 nm.
The same measure, in the same setting: for B16 the value was 0.148 OD450 nm.
On the same count and under the same terms, for B17 the value was 1.33 OD450 nm; for B18, 0.149 OD450 nm; for B19, 0.57 OD450 nm.
With B20, the “OD450 nm (P.E. binding ELISA)” value stood at 0.202 OD450 nm.
Same read-out and setting: for B21 the value was 0.836 OD450 nm.
On the same count and under the same terms, for B22 the value was 0.69 OD450 nm; for B23, 0.271 OD450 nm; for B24, 1.42 OD450 nm.
